Assay results taken from the supplement of paper PMC6757056.
± gives the standard deviation of the averaged measurements.

B1: library; a variant is named by its letters at N, in order (parent)
chain: GCUGUCACCGGAAUACCAGCAUCGUCUUGAUGCCCUUGGAAGUCCGGUCUGAUGAGUCCNNNNNGGACGAAACAGC

Tests used:
theophylline [1] = variants of: B1; assay: FACS-Seq fitted mean relative fluorescence mCherry/BFP without ligand (log10 relative fluorescence); higher = higher reporter protein expression; settings: HEK293T, ligand present: no
Experimental: (§1)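 Hammerhead (sTRSV) ribozyme switch libraries with a ligand aptamer grafted on stem I and a randomized N4-6 loop II, cloned into the 3' UTR of mCherry and transiently transfected into HEK293T cells; RNA-Seq 72 h post transfection with ligand added 1 h before transfection; RNA read count / plasmid DNA read count normalized to the non-cleaving sTRSVctl (x100), log10; sequences with >100 DNA reads. FACS-Seq: lentiviral library sorted into 6 bins after 48 h ligand, log-normal fit mean of mCherry/BFP scaled to controls. Printed sequences are partial switch sequences.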

theophylline [2] = variants of: B1; assay: normalized RNA/DNA level with ligand (relative to sTRSVctl = 100) (log10 (% of sTRSVctl)); higher = less ribozyme self-cleavage, higher mRNA level; settings: ligand concentration (+) RNA-Seq: 5 mM, HEK293T, reporter: mCherry (pCS4076), ligand present: yes
Experimental: as §1

theophylline [3] = variants of: B1; assay: normalized RNA/DNA level without ligand (relative to sTRSVctl = 100) (log10 (% of sTRSVctl)); higher = less ribozyme self-cleavage, higher mRNA level; settings: HEK293T, reporter: mCherry (pCS4076), ligand present: no
Experimental: as §1

theophylline [4] = variants of: B1; assay: FACS-Seq fitted mean relative fluorescence mCherry/BFP with ligand (log10 relative fluorescence); ligand concentration (+) FACS-Seq: 1 mM; higher = higher reporter protein expression; settings: HEK293T, ligand present: yes
Experimental: as §1

| Variant | FACS-Seq fitted mean (log10) (theophylline [1]) | normalized RNA/DNA level with ligand (log10) (theophylline [2]) | normalized RNA/DNA level without ligand (log10) (theophylline [3]) | FACS-Seq fitted mean (log10) (theophylline [4]) |
| --- | --- | --- | --- | --- |
| ACAAC | 0.304 ± 0.051 | 1.97 ± 0.051 | 1.86 ± 0.038 | 0.206 ± 0.062 |
| GAUGU | 0.101 ± 0.097 | 1.88 ± 0.052 | 1.71 ± 0.099 | 0.375 ± 0.068 |
| GAUGG | -0.543 ± 0.056 | 2 ± 0.062 | 1.8 ± 0.022 | -0.332 ± 0.0071 |
| GAUGC | 0.964 ± 0.13 | 1.98 ± 0.029 | 1.88 ± 0.098 | 1.05 ± 0.072 |
| CCCUC | 0.893 ± 0.045 | 2.032 ± 0.012 | 2.11 ± 0.057 | 0.84 ± 0.019 |
| CCCUA | 0.768 ± 0.05 | 2.01 ± 0.077 | 1.872 ± 0.011 | 0.751 ± 0.022 |
| CCCCU | 0.771 ± 0.094 | 2 ± 0.042 | 1.951 ± 0.01 | 0.807 ± 0.053 |
| CCCCC | 0.942 ± 0.16 | 2.0303 ± 0.00068 | 1.97 ± 0.032 | 0.862 ± 0.091 |
| CCCCA | 0.614 ± 0.038 | 2.043 ± 0.0071 | 1.9 ± 0.11 | 0.52 ± 0.035 |
| UCCUC | 0.414 ± 0.042 | 2.03 ± 0.022 | 2.022 ± 0.015 | 0.566 ± 0.064 |
| UCCUA | 0.918 ± 0.078 | 2 ± 0.13 | 2.007 ± 0.0046 | 0.92 ± 0.058 |
| UCCUG | 0.994 ± 0.063 | 2.02 ± 0.1 | 1.99 ± 0.037 | 0.905 ± 0.0097 |
| GAUUG | 0.498 ± 0.059 | 1.98 ± 0.1 | 1.75 ± 0.12 | 0.711 ± 0.017 |
| GAUUU | 0.1728 ± 0.00021 | 2.05 ± 0.067 | 1.78 ± 0.12 | 0.28 ± 0.031 |
| GCAUU | 0.42 ± 0.1 | 1.938 ± 0.0078 | 1.792 ± 0.0054 | 0.4217 ± 0.00082 |
| GCAUG | 0.8295 ± 0.0081 | 1.939 ± 0.013 | 1.79 ± 0.026 | 0.966 ± 0.067 |
| CAGUU | 0.491 ± 0.036 | 2.06 ± 0.055 | 1.6287 ± 0.00046 | 0.76 ± 0.037 |
| CAGUC | 0.691 ± 0.085 | 1.94 ± 0.086 | 1.86 ± 0.14 | 0.68 ± 0.13 |
| CAGUA | 0.206 ± 0.0074 | 1.95 ± 0.15 | 1.27 ± 0.084 | 0.675 ± 0.018 |
| AAUAA | -0.00162 ± 0.092 | 1.88 ± 0.051 | 1.33 ± 0.021 | 0.509 ± 0.039 |
| AAUAG | 0.929 ± 0.015 | 1.965 ± 0.015 | 1.85 ± 0.039 | 0.894 ± 0.16 |
| AAUAU | -0.0622 ± 0.051 | 1.99 ± 0.083 | 1.75 ± 0.024 | 0.253 ± 0.077 |
| AAUAC | 0.997 ± 0.065 | 1.95 ± 0.045 | 1.85 ± 0.084 | 1.061 ± 0.0058 |
| ACACG | 1.12 ± 0.1 | 1.93 ± 0.024 | 1.8 ± 0.026 | 1.2 ± 0.07 |

| Variant | FACS-Seq fitted mean (log10) (theophylline [1]) | normalized RNA/DNA level with ligand (log10) (theophylline [2]) | normalized RNA/DNA level without ligand (log10) (theophylline [3]) | FACS-Seq fitted mean (log10) (theophylline [4]) |
| --- | --- | --- | --- | --- |
| ACACU | 0.829 ± 0.042 | 2.04 ± 0.094 | 1.85 ± 0.14 | 0.802 ± 0.071 |
| ACACA | 0.454 ± 0.049 | 1.94 ± 0.051 | 1.77 ± 0.036 | 0.653 ± 0.055 |
| ACACC | 0.952 ± 0.087 | 1.99 ± 0.12 | 2 ± 0.022 | 1.11 ± 0.06 |
| CCCAU | 0.699 ± 0.08 | 1.97 ± 0.028 | 1.901 ± 0.019 | 0.822 ± 0.04 |
| CCCAA | 0.563 ± 0.0093 | 2.012 ± 0.0096 | 1.82 ± 0.13 | 0.684 ± 0.021 |
| CCCAC | 0.775 ± 0.051 | 1.975 ± 0.011 | 1.95 ± 0.061 | 0.711 ± 0.051 |
| UCACU | 0.354 ± 0.029 | 2.003 ± 0.0094 | 1.85 ± 0.092 | 0.438 ± 0.015 |
| UCACA | 0.565 ± 0.12 | 2 ± 0.027 | 1.48 ± 0.097 | 0.896 ± 0.07 |
| UCACC | -0.0671 ± 0.15 | 1.92 ± 0.022 | 1.93 ± 0.053 | 0.0211 ± 0.046 |
| GAGUU | 0.55 ± 0.013 | 1.89 ± 0.025 | 1.6731 ± 0.00032 | 0.742 ± 0.063 |
| UCCCC | 1.11 ± 0.13 | 2.005 ± 0.019 | 2.01 ± 0.053 | 1.06 ± 0.032 |
| UCCCG | 1.07 ± 0.16 | 2.027 ± 0.0081 | 2.008 ± 0.0028 | 1.055 ± 0.0097 |
| UCCCU | 0.877 ± 0.032 | 2.08 ± 0.12 | 1.97 ± 0.026 | 1.03 ± 0.11 |
| ACCGG | 0.955 ± 0.0037 | 1.95 ± 0.021 | 1.94 ± 0.076 | 1.05 ± 0.12 |
| ACCGC | 1.12 ± 0.047 | 2.06 ± 0.056 | 1.99 ± 0.03 | 1.1 ± 0.027 |
| ACCGA | 0.6309 ± 0.0029 | 2.006 ± 0.015 | 1.77 ± 0.059 | 0.7685 ± 0.0034 |
| ACCGU | 0.885 ± 0.043 | 1.952 ± 0.0024 | 1.83 ± 0.039 | 0.856 ± 0.08 |
| CCAGU | 0.937 ± 0.067 | 1.974 ± 0.0042 | 1.9 ± 0.12 | 0.929 ± 0.058 |
| CCAGA | 0.765 ± 0.044 | 1.95 ± 0.15 | 1.86 ± 0.098 | 0.758 ± 0.085 |
| CCAGC | 0.9205 ± 0.0079 | 1.96 ± 0.056 | 1.994 ± 0.008 | 0.864 ± 0.14 |
| UAUGA | 0.56 ± 0.0061 | 1.92 ± 0.051 | 1.57 ± 0.064 | 0.686 ± 0.033 |
| UAUGG | 0.926 ± 0.12 | 1.965 ± 0.014 | 1.86 ± 0.12 | 0.992 ± 0.017 |
| UAUGU | 0.685 ± 0.011 | 2.111 ± 0.021 | 1.97 ± 0.035 | 0.621 ± 0.026 |
| UAUGC | 0.174 ± 0.099 | 2.02 ± 0.087 | 2 ± 0.11 | 0.278 ± 0.059 |

| Variant | FACS-Seq fitted mean (log10) (theophylline [1]) | normalized RNA/DNA level with ligand (log10) (theophylline [2]) | normalized RNA/DNA level without ligand (log10) (theophylline [3]) | FACS-Seq fitted mean (log10) (theophylline [4]) |
| --- | --- | --- | --- | --- |
| GCAGA | 0.899 ± 0.2 | 2.04 ± 0.03 | 1.66 ± 0.083 | 0.875 ± 0.14 |
| GCAGU | -0.266 ± 0.054 | 1.97 ± 0.12 | 1.774 ± 0.0085 | -0.0491 ± 0.075 |
| ACCAA | 0.759 ± 0.043 | 2.02 ± 0.082 | 1.74 ± 0.069 | 0.832 ± 0.016 |
| ACCAU | 0.574 ± 0.037 | 1.993 ± 0.011 | 1.86 ± 0.02 | 0.605 ± 0.068 |
| ACCAG | 0.9579 ± 0.0021 | 1.93 ± 0.028 | 1.83 ± 0.059 | 1.02 ± 0.047 |
| ACCAC | 1.02 ± 0.038 | 2 ± 0.055 | 2.006 ± 0.014 | 0.984 ± 0.066 |
| UAUCG | 1.02 ± 0.21 | 2.07 ± 0.028 | 2 ± 0.07 | 0.934 ± 0.064 |
| UAUCC | 0.705 ± 0.11 | 2.007 ± 0.016 | 2.02 ± 0.14 | 0.572 ± 0.019 |
| CAUGU | 0.628 ± 0.042 | 1.98 ± 0.033 | 1.96 ± 0.052 | 0.704 ± 0.062 |
| CAUGA | 0.56151 ± 0.00013 | 2.03 ± 0.064 | 1.69 ± 0.1 | 0.619 ± 0.12 |
| CAUGC | 0.705 ± 0.09 | 2.03 ± 0.085 | 1.98 ± 0.071 | 0.633 ± 0.01 |
| UCAGA | 0.377 ± 0.081 | 1.96 ± 0.099 | 1.55 ± 0.13 | 0.6274 ± 0.0049 |
| UCAGU | 0.741 ± 0.036 | 2.011 ± 0.018 | 1.875 ± 0.018 | 0.752 ± 0.097 |
| CAUCC | 0.98 ± 0.04 | 2.04 ± 0.045 | 2 ± 0.12 | 1.162 ± 0.0037 |
| UAUUC | 0.679 ± 0.022 | 1.99 ± 0.089 | 1.94 ± 0.11 | 0.6994 ± 0.0049 |
| UAUUU | 0.892 ± 0.098 | 1.995 ± 0.0037 | 1.94 ± 0.032 | 0.906 ± 0.048 |
| UAUUG | 0.752 ± 0.025 | 2.07 ± 0.029 | 1.921 ± 0.017 | 0.768 ± 0.032 |
| ACCCG | 0.917 ± 0.11 | 2 ± 0.012 | 1.94 ± 0.12 | 0.973 ± 0.031 |
| ACCCU | 0.718 ± 0.011 | 2.023 ± 0.016 | 1.93 ± 0.091 | 0.587 ± 0.09 |
| ACCCA | 0.9 ± 0.021 | 2.02 ± 0.044 | 1.93 ± 0.066 | 0.869 ± 0.033 |
| ACCCC | 0.753 ± 0.1 | 2.037 ± 0.0066 | 1.99 ± 0.053 | 0.657 ± 0.08 |
| UAUAA | 0.194 ± 0.045 | 2.02 ± 0.052 | 1.47 ± 0.088 | 0.511 ± 0.038 |
| UAUAC | 0.747 ± 0.029 | 2.06 ± 0.027 | 1.98 ± 0.088 | 0.749 ± 0.0085 |
| UAUAG | 0.9651 ± 0.0015 | 1.95 ± 0.053 | 1.855 ± 0.015 | 0.896 ± 0.067 |
